Blank lines part the entries; values can stand above or below the binder they belong to. Numbered stars: 1 amine (or outer) side, 2 acyl side, 3 side chain; on linkers, the order of the positions; unused ones are H or OH. Bridge positions count the residues as written; N and C are the ends. Side chains are listed from the residue outwards. Ends that are not written are not given here. * marks the point of attachment. C20 diacid = O=C(O)CCCCCCCCCCCCCCCCCCC(=O)*; γGlu = O=C(O)[C@H](CCC(=O)[*:2])N[*:1]
Legend:
[1] = molecular target: T1, human calcitonin receptor (human, UniProt P30988 25-474); test: cell-based or functional assay
T1 sequence (looked up): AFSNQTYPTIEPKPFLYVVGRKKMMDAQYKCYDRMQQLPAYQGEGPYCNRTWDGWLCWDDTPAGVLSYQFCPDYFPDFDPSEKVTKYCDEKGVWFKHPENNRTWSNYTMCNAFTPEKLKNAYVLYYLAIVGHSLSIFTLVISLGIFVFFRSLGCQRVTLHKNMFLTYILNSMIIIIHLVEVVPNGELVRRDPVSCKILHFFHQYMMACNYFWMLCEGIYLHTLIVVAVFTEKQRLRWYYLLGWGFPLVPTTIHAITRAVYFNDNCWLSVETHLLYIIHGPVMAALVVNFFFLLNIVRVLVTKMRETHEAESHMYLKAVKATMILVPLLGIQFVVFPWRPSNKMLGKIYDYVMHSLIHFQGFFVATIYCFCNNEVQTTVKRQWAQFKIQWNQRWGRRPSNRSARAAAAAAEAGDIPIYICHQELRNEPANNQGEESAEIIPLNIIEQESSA

[2] = molecular target: T2, human amylin 3(a) receptor (human calcitonin receptor + RAMP-3) (human, UniProt P30988 25-474; O60896 24-148, limits assumed); test: cell-based or functional assay
T2 sequence (looked up) 1: T1 sequence (looked up)
T2 sequence (looked up) 2: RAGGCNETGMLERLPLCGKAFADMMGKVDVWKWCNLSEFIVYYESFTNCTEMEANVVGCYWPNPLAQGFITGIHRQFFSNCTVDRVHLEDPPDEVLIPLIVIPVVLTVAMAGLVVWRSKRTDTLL

Ratio hCT/hAmylin funct. [1]: 3.8
hAmylin-R funct. EC50 (pM) [2]: 270 pM
B1: N^α1N^α1-[(4S)-4-carboxy-4-(19-carboxynonadecanoylamino)butanoyl]-[Glu14,Arg17,Pro21,Pro27,Glu35]-h-amylin (peptide)
peptide: {C20 diacid-γGlu}-KCNTATCATQRLAEFLRHSSPNFGAIPSSTNVGSETY-NH2
modifications: disulfide 2-7
SMILES: CC[C@H](C)[C@H](NC(=O)[C@H](C)NC(=O)CNC(=O)[C@H](Cc1ccccc1)NC(=O)[C@H](CC(N)=O)NC(=O)[C@@H]1CCCN1C(=O)[C@H](CO)NC(=O)[C@H](CO)NC(=O)[C@H](Cc1c[nH]cn1)NC(=O)[C@H](CCCNC(=N)N)NC(=O)[C@H](CC(C)C)NC(=O)[C@H](Cc1ccccc1)NC(=O)[C@H](CCC(=O)O)NC(=O)[C@H](C)NC(=O)[C@H](CC(C)C)NC(=O)[C@H](CCCNC(=N)N)NC(=O)[C@H](CCC(N)=O)NC(=O)[C@@H](NC(=O)[C@H](C)NC(=O)[C@@H]1CSSC[C@H](NC(=O)[C@H](CCCCN)NC(=O)CC[C@H](NC(=O)CCCCCCCCCCCCCCCCCCC(=O)O)C(=O)O)C(=O)N[C@@H](CC(N)=O)C(=O)N[C@@H]([C@@H](C)O)C(=O)N[C@@H](C)C(=O)N[C@@H]([C@@H](C)O)C(=O)N1)[C@@H](C)O)C(=O)N1CCC[C@H]1C(=O)N[C@@H](CO)C(=O)N[C@@H](CO)C(=O)N[C@H](C(=O)N[C@@H](CC(N)=O)C(=O)N[C@H](C(=O)NCC(=O)N[C@@H](CO)C(=O)N[C@@H](CCC(=O)O)C(=O)N[C@H](C(=O)N[C@@H](Cc1ccc(O)cc1)C(N)=O)[C@@H](C)O)C(C)C)[C@@H](C)O
notes: also called compound 22

Ratio hCT/hAmylin funct. [1]: 4.5
hAmylin-R funct. EC50 (pM) [2]: 70 pM
B2: N^ε1-[(4S)-4-carboxy-4-(19-carboxynonadecanoylamino)butanoyl]-[Ala14,Arg17,Pro21,Pro27,Pro34]-h-amylin (peptide)
peptide: K([γGlu-C20 diacid])CNTATCATQRLAAFLRHSSPNFGAIPSSTNVGPNTY-NH2
modifications: disulfide 2-7; N-terminus assumed
SMILES: CC[C@H](C)[C@H](NC(=O)[C@H](C)NC(=O)CNC(=O)[C@H](Cc1ccccc1)NC(=O)[C@H](CC(N)=O)NC(=O)[C@@H]1CCCN1C(=O)[C@H](CO)NC(=O)[C@H](CO)NC(=O)[C@H](Cc1c[nH]cn1)NC(=O)[C@H](CCCNC(=N)N)NC(=O)[C@H](CC(C)C)NC(=O)[C@H](Cc1ccccc1)NC(=O)[C@H](C)NC(=O)[C@H](C)NC(=O)[C@H](CC(C)C)NC(=O)[C@H](CCCNC(=N)N)NC(=O)[C@H](CCC(N)=O)NC(=O)[C@@H](NC(=O)[C@H](C)NC(=O)[C@@H]1CSSC[C@H](NC(=O)[C@@H](N)CCCCNC(=O)CC[C@H](NC(=O)CCCCCCCCCCCCCCCCCCC(=O)O)C(=O)O)C(=O)N[C@@H](CC(N)=O)C(=O)N[C@@H]([C@@H](C)O)C(=O)N[C@@H](C)C(=O)N[C@@H]([C@@H](C)O)C(=O)N1)[C@@H](C)O)C(=O)N1CCC[C@H]1C(=O)N[C@@H](CO)C(=O)N[C@@H](CO)C(=O)N[C@H](C(=O)N[C@@H](CC(N)=O)C(=O)N[C@H](C(=O)NCC(=O)N1CCC[C@H]1C(=O)N[C@@H](CC(N)=O)C(=O)N[C@H](C(=O)N[C@@H](Cc1ccc(O)cc1)C(N)=O)[C@@H](C)O)C(C)C)[C@@H](C)O
notes: also called compound 94

— patent publication US20140087995A1 (published 2014)
